Laboratory results as given in IntAct's records for PubMed 19033468.

B1: E3 ubiquitin-protein ligase UBR1 (Saccharomyces cerevisiae), P19812 (parent)
chain: MSVADDDLGSLQGHIRRTLRSIHNLPYFRYTRGPTERADMSRALKEFIYRYLYFVISNSGENLPTLFNAHPKQKLSNPELTVFPDSLEDAVDIDKITSQQTIPFYKIDESRIGDVHKHTGRNCGRKFKIGEPLYRCHECGCDDTCVLCIHCFNPKDHVNHHVCTDICTEFTSGICDCGDEEAWNSPLHCKAEEQENDISEDPATNADIKEEDVWNDSVNIALVELVLAEVFDYFIDVFNQNIEPLPTIQKDITIKLREMTQQGKMYERAQFLNDLKYENDYMFDGTTTAKTSPSNSPEASPSLAKIDPENYTVIIYNDEYHNYSQATTALRQGVPDNVHIDLLTSRIDGEGRAMLKCSQDLSSVLGGFFAVQTNGLSATLTSWSEYLHQETCKYIILWITHCLNIPNSSFQTTFRNMMGKTLCSEYLNATECRDMTPVVEKYFSNKFDKNDPYRYIDLSILADGNQIPLGHHKILPESSTHSLSPLINDVETPTSRTYSNTRLQHILYFDNRYWKRLRKDIQNVIIPTLASSNLYKPIFCQQVVEIFNHITRSVAYMDREPQLTAIRECVVQLFTCPTNAKNIFENQSFLDIVWSIIDIFKEFCKVEGGVLIWQRVQKSNLTKSYSISFKQGLYTVETLLSKVHDPNIPLRPKEIISLLTLCKLFNGAWKIKRKEGEHVLHEDQNFISYLEYTTSIYSIIQTAEKVSEKSKDSIDSKLFLNAIRIISSFLGNRSLTYKLIYDSHEVIKFSVSHERVAFMNPLQTMLSFLIEKVSLKDAYEALEDCSDFLKISDFSLRSVVLCSQIDVGFWVRNGMSVLHQASYYKNNPELGSYSRDIHLNQLAILWERDDIPRIIYNILDRWELLDWFTGEVDYQHTVYEDKISFIIQQFIAFIYQILTERQYFKTFSSLKDRRMDQIKNSIIYNLYMKPLSYSKLLRSVPDYLTEDTTEFDEALEEVSVFVEPKGLADNGVFKLKASLYAKVDPLKLLNLENEFESSATIIKSHLAKDKDEIAKVVLIPQVSIKQLDKDALNLGAFTRNTVFAKVVYKLLQVCLDMEDSTFLNELLHLVHGIFRDDELINGKDSIPEAYLSKPICNLLLSIANAKSDVFSESIVRKADYLLEKMIMKKPNELFESLIASFGNQYVNDYKDKKLRQGVNLQETEKERKRRLAKKHQARLLAKFNNQQTKFMKEHESEFDEQDNDVDMVGEKVYESEDFTCALCQDSSSTDFFVIPAYHDHSPIFRPGNIFNPNEFMPMWDGFYNDDEKQAYIDDDVLEALKENGSCGSRKVFVSCNHHIHHNCFKRYVQKKRFSSNAFICPLCQTFSNCTLPLCQTSKANTGLSLDMFLESELSLDTLSRLFKPFTEENYRTINSIFSLMISQCQGFDKAVRKRANFSHKDVSLILSVHWANTISMLEIASRLEKPYSISFFRSREQKYKTLKNILVCIMLFTFVIGKPSMEFEPYPQQPDTVWNQNQLFQYIVRSALFSPVSLRQTVTEALTTFSRQFLRDFLQGLSDAEQVTKLYAKASKIGDVLKVSEQMLFALRTISDVRMEGLDSESIIYDLAYTFLLKSLLPTIRRCLVFIKVLHELVKDSENETLVINGHEVEEELEFEDTAEFVNKALKMITEKESLVDLLTTQESIVSHPYLENIPYEYCGIIKLIDLSKYLNTYVTQSKEIKLREERSQHMKNADNRLDFKICLTCGVKVHLRADRHEMTKHLNKNCFKPFGAFLMPNSSEVCLHLTQPPSNIFISAPYLNSHGEVGRNAMRRGDLTTLNLKRYEHLNRLWINNEIPGYISRVMGDEFRVTILSNGFLFAFNREPRPRRIPPTDEDDEDMEEGEDGFFTEGNDEMDVDDETGQAANLFGVGAEGIAGGGVRDFFQFFENFRNTLQPQGNGDDDAPQNPPPILQFLGPQFDGATIIRNTNPRNLDEDDSDDNDDSDEREIW
partner: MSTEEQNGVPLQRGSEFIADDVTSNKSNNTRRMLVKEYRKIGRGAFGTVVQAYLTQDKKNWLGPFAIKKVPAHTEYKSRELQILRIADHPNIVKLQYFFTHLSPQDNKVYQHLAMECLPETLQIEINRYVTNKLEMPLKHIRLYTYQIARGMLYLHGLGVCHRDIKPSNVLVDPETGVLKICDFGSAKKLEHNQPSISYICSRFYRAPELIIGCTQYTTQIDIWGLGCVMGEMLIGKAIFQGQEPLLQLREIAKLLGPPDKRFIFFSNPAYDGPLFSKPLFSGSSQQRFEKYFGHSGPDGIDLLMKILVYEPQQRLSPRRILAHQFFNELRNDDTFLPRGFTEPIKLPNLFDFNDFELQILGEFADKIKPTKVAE
B2: Protein kinase MCK1 (Saccharomyces cerevisiae), P21965 (parent)
chain: B1 partner

Variants of: B1
Details: with mck1_yeast MCK1, P21965

effect of a mutation on the interaction | Variant
disrupting interaction | Y277F

Variants of: B2
Details: with ubr1_yeast UBR1, P19812

effect of a mutation on the interaction | Variant
disrupting interaction | MSTEEQNGVPLQRGSEFIADDVTSNKSNNTRRMLVKEYRKIGRGAFGTVVQAYLTQDKKNWLGPFAIKKVPAHTEYKSRELQILRIADHPNIVKLQYFFTHLSPQDNKVYQHLAMECLPETLQIEINRYVTNKLEMPLKHIRLYTYQIARGMLYLHGLGVCHRAIKPSNVLVDPETGVLKICDFGSAKKLEHNQPSISYICSRFYRAPELIIGCTQYTTQIDIWGLGCVMGEMLIGKAIFQGQEPLLQLREIAKLLGPPDKRFIFFSNPAYDGPLFSKPLFSGSSQQRFEKYFGHSGPDGIDLLMKILVYEPQQRLSPRRILAHQFFNELRNDDTFLPRGFTEPIKLPNLFDFNDFELQILGEFADKIKPTKVAE [D164A]
